Columns and labels:
Conditions in all cases: both partners purified
[1] = biological target: T1, CUL2/RBX1, neddylated in vitro (partially neddylated full-length CUL2) (human | , UniProt Q13617-1 1-745; P62877 1-108; Q15843 1-76, NEDD8 conjugated in vitro on only a fraction of CUL2; Lys689 is the site of NEDD8-conjugation in human CUL2); assay: co-IP; 1.5 μg CUL2/RBX1 (unmodified or neddylated in vitro) pre-incubated with 1.5 μg bacterially expressed Flag-UBXN7 for 30 minutes, then one hour with anti-Flag beads in buffer D
T1 construct: CUL2, human, full-length; RBX1, amplified from EST IMAGE 3138751; NEDD8 (BostonBiochem) conjugated to CUL2 in vitro; RBX1 substoichiometric; also called neddylated CUL2; CUL2 that was in vitro neddylated; copies: + +

[2] = biological target: T2, CUL2/RBX1, unmodified (full-length CUL2, GST cleaved off) (human | , UniProt Q13617-1 1-745; P62877 1-108); assay: as above
T2 construct: CUL2, human, full-length; RBX1, amplified from EST IMAGE 3138751; also called unmodified CUL2; non-neddylated CUL2; source: Spodoptera frugiperda 21 cells (baculovirus), purified (GSH-Sepharose, GST cleaved with PreScission protease)

[3] = biological target: T3, Flag-CUL1(324-776)/GST-HA-RBX1 complex, non-neddylated (mock neddylation) (UniProt Q13616 324-776; P62877 1-108); assay: pull-down; Flag-CUL1(324-776)/GST-HA-RBX1 (about 1 μg) immobilized on GSH-sepharose, neddylated or mock-treated, incubated for one hour with 3 μg Flag-UBXN7 variant in buffer D; naked beads as control
T3 construct: RBX1; also called non-neddylated CUL1 fragment; CUL1/RBX1 complex; source: E. coli BL21, co-expressed, immobilized from lysate on GSH-sepharose

[4] = biological target: T4, Flag-CUL1(324-776)/GST-HA-RBX1 complex, neddylated in vitro (mixture of neddylated and non-neddylated) (UniProt Q13616 324-776; P62877 1-108; Q15843 1-76, NEDD8 conjugated in vitro (mixture of neddylated and non-neddylated); site not stated); assay: as above
T4 construct: RBX1; NEDD8 (BostonBiochem) conjugated to the CUL1 fragment in vitro; also called neddylated CUL1 fragment; source: E. coli BL21, co-expressed, immobilized from lysate on GSH-sepharose, neddylated in vitro on the beads; copies: + +

ubiquitin-agarose = biological target: T5, ubiquitin-agarose (UniProt P0CG47 1-76); assay: pull-down; 25 μg recombinant UBXN7 variant incubated for one hour with 10 μl NEDD8- or ubiquitin-agarose in buffer D (50 mM HEPES/KOH pH 7.5, 60 mM KOAc, 5 mM MgCl2, 5% glycerol, 0.1% Triton X-100)
T5 construct: ubiquitin coupled to agarose beads; source: bought: BostonBiochem (ubiquitin-agarose)

Measured: binding result

T3 sequence (Q13616 324-776, chain 1 of 2): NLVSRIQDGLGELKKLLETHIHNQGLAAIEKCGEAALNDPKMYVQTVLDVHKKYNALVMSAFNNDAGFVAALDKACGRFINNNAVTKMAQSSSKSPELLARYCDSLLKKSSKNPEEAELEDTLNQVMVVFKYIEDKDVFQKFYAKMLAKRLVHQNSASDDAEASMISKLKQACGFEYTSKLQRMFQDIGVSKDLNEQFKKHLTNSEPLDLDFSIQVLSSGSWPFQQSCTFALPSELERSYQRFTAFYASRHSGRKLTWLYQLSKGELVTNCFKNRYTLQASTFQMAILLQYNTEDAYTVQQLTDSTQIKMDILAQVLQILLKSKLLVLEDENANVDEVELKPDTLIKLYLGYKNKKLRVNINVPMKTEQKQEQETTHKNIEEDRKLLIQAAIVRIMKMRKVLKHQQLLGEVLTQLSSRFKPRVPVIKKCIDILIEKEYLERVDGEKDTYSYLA
T3 sequence (P62877 whole entry, chain 2 of 2, the tested form may be a part): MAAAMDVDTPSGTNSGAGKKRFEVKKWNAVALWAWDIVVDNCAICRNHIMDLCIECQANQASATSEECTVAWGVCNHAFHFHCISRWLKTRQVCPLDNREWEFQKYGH
T4 sequence (Q13616 324-776, chain 1 of 3): as the sequence (Q13616 324-776, chain 1 of 2) above
T4 sequence (P62877 whole entry, chain 2 of 3, the tested form may be a part): as the sequence (P62877 whole entry, chain 2 of 2, the tested form may be a part) above
T4 sequence (Q15843 1-76, chain 3 of 3): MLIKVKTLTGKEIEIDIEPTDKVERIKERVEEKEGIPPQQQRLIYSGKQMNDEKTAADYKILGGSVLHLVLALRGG
T1 sequence (Q13617 whole entry, chain 1 of 3): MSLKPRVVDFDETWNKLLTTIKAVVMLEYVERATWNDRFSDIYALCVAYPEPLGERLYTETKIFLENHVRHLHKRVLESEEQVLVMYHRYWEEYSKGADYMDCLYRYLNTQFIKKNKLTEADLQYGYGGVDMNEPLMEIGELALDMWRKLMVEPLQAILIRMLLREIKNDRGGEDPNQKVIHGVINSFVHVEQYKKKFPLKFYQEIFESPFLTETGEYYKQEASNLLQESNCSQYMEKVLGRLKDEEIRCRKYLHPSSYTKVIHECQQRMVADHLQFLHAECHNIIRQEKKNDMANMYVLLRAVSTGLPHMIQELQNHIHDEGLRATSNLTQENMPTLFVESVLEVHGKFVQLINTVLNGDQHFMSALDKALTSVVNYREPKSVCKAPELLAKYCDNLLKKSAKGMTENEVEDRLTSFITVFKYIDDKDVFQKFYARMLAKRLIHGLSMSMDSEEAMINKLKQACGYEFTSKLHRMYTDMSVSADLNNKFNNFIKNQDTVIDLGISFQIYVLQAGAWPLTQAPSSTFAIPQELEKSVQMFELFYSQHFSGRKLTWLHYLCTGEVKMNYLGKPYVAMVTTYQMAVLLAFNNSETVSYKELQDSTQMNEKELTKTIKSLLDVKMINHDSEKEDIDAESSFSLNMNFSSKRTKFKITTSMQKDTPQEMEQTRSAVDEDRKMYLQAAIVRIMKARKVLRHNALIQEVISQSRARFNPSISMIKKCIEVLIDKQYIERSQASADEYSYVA
T1 sequence (P62877 whole entry, chain 2 of 3): as the sequence (P62877 whole entry, chain 2 of 2, the tested form may be a part) above
T1 sequence (Q15843 1-76, chain 3 of 3): as the sequence (Q15843 1-76, chain 3 of 3) above
T2 sequence (Q13617 whole entry, chain 1 of 2): as the sequence (Q13617 whole entry, chain 1 of 3) above
T2 sequence (P62877 whole entry, chain 2 of 2): as the sequence (P62877 whole entry, chain 2 of 2, the tested form may be a part) above

B1: bacterially expressed Flag-UBXN7 (wild-type, full length) (natural protein, human, UniProt O94888 1-489, looked up)
chain: MAAHGGSAASSALKGLIQQFTTITGASESVGKHMLEACNNNLEMAVTMFLDGGGIAEEPSTSSASVSTVRPHTEEEVRAPIPQKQEILVEPEPLFGAPKRRRPARSIFDGFRDFQTETIRQEQELRNGGAIDKKLTTLADLFRPPIDLMHKGSFETAKECGQMQNKWLMINIQNVQDFACQCLNRDVWSNEAVKNIIREHFIFWQVYHDSEEGQRYIQFYKLGDFPYVSILDPRTGQKLVEWHQLDVSSFLDQVTGFLGEHGQLDGLSSSPPKKCARSESLIDASEDSQLEAAIRASLQETHFDSTQTKQDSRSDEESESELFSGSEEFISVCGSDEEEEVENLAKSRKSPHKDLGHRKEENRRPLTEPPVRTDPGTATNHQGLPAVDSEILEMPPEKADGVVEGIDVNGPKAQLMLRYPDGKREQITLPEQAKLLALVKHVQSKGYPNERFELLTNFPRRKLSHLDYDITLQEAGLCPQETVFVQERN
notes: UBXN7, human, full length, in a modified pGEX6P-1 vector; also called wild-type UBXN7; recombinant UBXN7; source: E. coli BL21 DE3, purified (GSH-sepharose, TEV cleavage, Superdex 75)
binds: [1] | [2] | [3] | [4] | ubiquitin-agarose

Source: article PMC3349548, “UBXN7 docks on neddylated cullin complexes using its UIM motif and causes HIF1α accumulation” (BMC Biology, 2012)
